For series [1], the system named is HeLa Kyoto. Nature of the series: solubility in G1/S (NP-40 vs SDS abundance) (log2 ratio); higher = more soluble. Particulars: cell cycle stage: G1/S.
The test system of series [2] is HeLa Kyoto. The experiment in a line: melting temperature (median over replicates), in situ; higher = more thermally stable.
Series [3] relates to HeLa Kyoto. The experiment in a line: solubility change mitosis vs G1/S (difference of NP-40 vs SDS log2 ratios) (log2 ratio difference); higher = more soluble in mitosis.
Series [4] deals with HeLa Kyoto. Nature of the series: thermal stability score vs G1/S (z-score of summed log2 fold changes over temperatures); higher = more thermally stable than in G1/S.
Where [5] appears, read: cell cycle stage: early G1 (4.5 h after nocodazole release).
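For melting temperature (median over replicates), in situ in this document: HeLa Kyoto cells synchronized by double thymidine or nocodazole block, proteins quantified by TMT10plex mass spectrometry, three independent biological replicates.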
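For solubility change mitosis vs G1/S (difference of NP-40 vs SDS log2 ratios) in this document: synchronized HeLa Kyoto cells (double thymidine block for G1/S, nocodazole release for mitosis), protein amounts in NP-40 versus SDS lysates quantified by mass spectrometry, three biological replicates.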
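For solubility in G1/S (NP-40 vs SDS abundance) in this document: HeLa Kyoto cells arrested at G1/S by double thymidine block, proteins quantified by TMT10plex mass spectrometry in mild NP-40 versus SDS extracts, three biological replicates.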
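For thermal stability score vs G1/S (z-score of summed log2 fold changes over temperatures) in this document: synchronized HeLa Kyoto cells, proteins quantified by TMT10plex mass spectrometry, three biological replicates, mitosis taken 0.5 h after nocodazole release, G1/S directly after double thymidine block.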

“MADAEVIILPKKHKKKKERKSLPEEDVAEIQHAEEFLIKPESKVAKLDTSQWPLLLKNFDKLNVRTTHYTPLACGSNPLKREIGDYIRTGFINLDKPSNPSSHEVVAWIRRILRVEKTGHSGTLDPKVTGCLIVCIERATRLVKSQQSAGKEYVGIVRLHNAIEGGTQLSRALETLTGALFQRPPLIAAVKRQLRVRTIYESKMIEYDPERRLGIFWVSCEAGTYIRTLCVHLGLLLGVGGQMQELRRVRSGVMSEKDHMVTMHDVLDAQWLYDNHKDESYLRRVVYPLEKLLTSHKRLVMKDSAVNAICYGAKIMLPGVLRYEDGIEVNQEIVVITTKGEAICMAIALMTTAVISTCDHGIVAKIKRVIMERDTYPRKWGLGPKASQKKLMIKQGLLDKHGKPTDSTPATWKQEYVDYSESAKKEVVAEVVKAPQVVAEAAKTAKRKRESESESDETPPAAPQLIKKEKKKSKKDKKAKAGLESGAEPGDGDSDTTKKKKKKKKAKEVELVSE [DKC1]”: the “solubility in G1/S (log2)” value in the series on HeLa Kyoto [1] was -1.41. In addition, the melting temperature worked out at 55.6 °C in the series on HeLa Kyoto [2] (cell cycle stage: G1/S) and 53.2 °C with HeLa Kyoto [2] (cell cycle stage: mitosis). In addition, the “solubility change mitosis (log2)” value in the series on HeLa Kyoto [3] was 0.816. Besides, the thermal stability score in the series with HeLa Kyoto [4] (setting [5]) was -3.35; with HeLa Kyoto [4] (cell cycle stage: mitosis), -5.27.

Consider “MESGAYGAAKAGGSFDLRRFLTQPQVVARAVCLVFALIVFSCIYGEGYSNAHESKQMYCVFNRNEDACRYGSAIGVLAFLASAFFLVVDAYFPQISNATDRKYLVIGDLLFSALWTFLWFVGFCFLTNQWAVTNPKDVLVGADSVRAAITFSFFSIFSWGVLASLAYQRYKAGVDDFIQNYVDPTPDPNTAYASYPGASVDNYQQPPFTQNAETTEGYQPPPVY [SYNGR2]”, for which the “solubility in G1/S (log2)” value with HeLa Kyoto [1] was determined as 0.192. In addition, the melting temperature with HeLa Kyoto [2] (cell cycle stage: G1/S) was found to be 54.9 °C; with HeLa Kyoto [2] (cell cycle stage: mitosis) it was 56.3 °C. The “solubility change mitosis (log2)” value in the series on HeLa Kyoto [3] is -0.171. Further, the thermal stability score in the series with HeLa Kyoto [4] (setting [5]) is -2; with HeLa Kyoto [4] (cell cycle stage: mitosis) it was -3.51.

Turning to “MVEADRPGKLFIGGLNTETNEKALEAVFGKYGRIVEVLLMKDRETNKSRGFAFVTFESPADAKDAARDMNGKSLDGKAIKVEQATKPSFESGRRGPPPPPRSRGPPRGLRGGRGGSGGTRGPPSRGGHMDDGGYSMNFNMSSSRGPLPVKRGPPPRSGGPPPKRSAPSGPVRSSSGMGGRAPVSRGRDSYGGPPRREPLPSRRDVYLSPRDDGYSTKDSYSSRDYPSSRDTRDYAPPPRDYTYRDYGHSSSRDDYPSRGYSDRDGYGRDRDYSDHPSGGSYRDSYESYGNSRSAPPTRGPPPSYGGSSRYDDYSSSRDGYGGSRDSYSSSRSDLYSSGRDRVGRQERGLPPSMERGYPPPRDSYSSSSRGAPRGGGRGGSRSDRGGGRSRY [RBMX]”, in the series with HeLa Kyoto [1], the “solubility in G1/S (log2)” value was -0.567. The melting temperature with HeLa Kyoto [2] (cell cycle stage: G1/S) was found to be 47.5 °C; in the series with HeLa Kyoto [2] (cell cycle stage: mitosis), 50.5 °C. In the series on HeLa Kyoto [3], the “solubility change mitosis (log2)” value is 0.777. For the same substance, the thermal stability score in the series on HeLa Kyoto [4] (setting [5]) is -0.25; in the series on HeLa Kyoto [4] (cell cycle stage: mitosis), 7.17.

Turning to “MDSTLTASEIRQRFIDFFKRNEHTYVHSSATIPLDDPTLLFANAGMNQFKPIFLNTIDPSHPMAKLSRAANTQKCIRAGGKHNDLDDVGKDVYHHTFFEMLGSWSFGDYFKELACKMALELLTQEFGIPIERLYVTYFGGDEAAGLEADLECKQIWQNLGLDDTKILPGNMKDNFWEMGDTGPCGPCSEIHYDRIGGRDAAHLVNQDDPNVLEIWNLVFIQYNREADGILKPLPKKSIDTGMGLERLVSVLQNKMSNYDTDLFVPYFEAIQKGTGARPYTGKVGAEDADGIDMAYRVLADHARTITVALADGGRPDNTGRGYVLRRILRRAVRYAHEKLNASRGFFATLVDVVVQSLGDAFPELKKDPDMVKDIINEEEVQFLKTLSRGRRILDRKIQSLGDSKTIPGDTAWLLYDTYGFPVDLTGLIAEEKGLVVDMDGFEEERKLAQLKSQGKGAGGEDLIMLDIYAIEELRARGLEVTDDSPKYNYHLDSSGSYVFENTVATVMALRREKMFVEEVSTGQECGVVLDKTCFYAEQGGQIYDEGYLVKVDDSSEDKTEFTVKNAQVRGGYVLHIGTIYGDLKVGDQVWLFIDEPRRRPIMSNHTATHILNFALRSVLGEADQKGSLVAPDRLRFDFTAKGAMSTQQIKKAEEIANEMIEAAKAVYTQDCPLAAAKAIQGLRAVFDETYPDPVRVVSIGVPVSELLDDPSGPAGSLTSVEFCGGTHLRNSSHAGAFVIVTEEAIAKGIRRIVAVTGAEAQKALRKAESLKKCLSVMEAKVKAQTAPNKDVQREIADLGEALATAVIPQWQKDELRETLKSLKKVMDDLDRASKADVQKRVLEKTKQFIDSNPNQPLVILEMESGASAKALNEALKLFKMHSPQTSAMLFTVDNEAGKITCLCQVPQNAANRGLKASEWVQQVSGLMDGKGGGKDVSAQATGKNVGCLQEALQLATSFAQLRLGDVKN [AARS]”, the “solubility in G1/S (log2)” value with HeLa Kyoto [1] is 0.201. Further, the figures for the melting temperature in the series with HeLa Kyoto [2] (cell cycle stage: G1/S) and in the series with HeLa Kyoto [2] (cell cycle stage: mitosis) were 51.6 °C and 52.1 °C, respectively. In the series with HeLa Kyoto [3], the “solubility change mitosis (log2)” value was -0.1. The thermal stability score in the series on HeLa Kyoto [4] (setting [5]) turned out to be 2.25; in the series with HeLa Kyoto [4] (cell cycle stage: mitosis), 2.81.

Consider “MDDLCEANGTFAISLFKILGEEDNSRNVFFSPMSISSALAMVFMGAKGSTAAQMSQALCLYKDGDIHRGFQSLLSEVNRTGTQYLLRTANRLFGEKTCDFLPDFKEYCQKFYQAELEELSFAEDTEECRKHINDWVAEKTEGKISEVLDAGTVDPLTKLVLVNAIYFKGKWNEQFDRKYTRGMLFKTNEEKKTVQMMFKEAKFKMGYADEVHTQVLELPYVEEELSMVILLPDDNTDLAVVEKALTYEKFKAWTNSEKLTKSKVQVFLPRLKLEESYDLEPFLRRLGMIDAFDEAKADFSGMSTEKNVPLSKVAHKCFVEVNEEGTEAAAATAVVRNSRCSRMEPRFCADHPFLFFIRHHKTNCILFCGRFSSP [SERPINB8]”, for which the “solubility in G1/S (log2)” value with HeLa Kyoto [1] is 0.146. Besides, the melting temperature in the series with HeLa Kyoto [2] (cell cycle stage: G1/S) came to 54.6 °C; with HeLa Kyoto [2] (cell cycle stage: mitosis), 54.2 °C. Also, the “solubility change mitosis (log2)” value with HeLa Kyoto [3] was -0.115. Further, the thermal stability score is -0.0278 in the series with HeLa Kyoto [4] (setting [5]) and -0.739 with HeLa Kyoto [4] (cell cycle stage: mitosis).

Regarding TOR1AIP1, the “solubility in G1/S (log2)” value in the series with HeLa Kyoto [1] is -0.0913. Moreover, the figures for the melting temperature in the series with HeLa Kyoto [2] (cell cycle stage: G1/S) and with HeLa Kyoto [2] (cell cycle stage: mitosis) were 54.4 °C and 54.9 °C, respectively. The “solubility change mitosis (log2)” value in the series with HeLa Kyoto [3] stood at 0.144. Also, the thermal stability score in the series with HeLa Kyoto [4] (setting [5]) turned out to be 1.27; in the series on HeLa Kyoto [4] (cell cycle stage: mitosis) it was 1.41.

Take “MNAGPGCEPCTKRPRWGAATTSPAASDARSFPSRQRRVLDPKDAHVQFRVPPSSPACVPGRAGQHRGSATSLVFKQKTITSWMDTKGIKTAESESLDSKENNNTRIESMMSSVQKDNFYQHNVEKLENVSQLSLDKSPTEKSTQYLNQHQTAAMCKWQNEGKHTEQLLESEPQTVTLVPEQFSNANIDRSPQNDDHSDTDSEENRDNQQFLTTVKLANAKQTTEDEQAREAKSHQKCSKSCDPGEDCASCQQDEIDVVPESPLSDVGSEDVGTGPKNDNKLTRQESCLGNSPPFEKESEPESPMDVDNSKNSCQDSEADEETSPGFDEQEDGSSSQTANKPSRFQARDADIEFRKRYSTKGGEVRLHFQFEGGESRTGMNDLNAKLPGNISSLNVECRNSKQHGKKDSKITDHFMRLPKAEDRRKEQWETKHQRTERKIPKYVPPHLSPDKKWLGTPIEEMRRMPRCGIRLPLLRPSANHTVTIRVDLLRAGEVPKPFPTHYKDLWDNKHVKMPCSEQNLYPVEDENGERTAGSRWELIQTALLNKFTRPQNLKDAILKYNVAYSKKWDFTALIDFWDKVLEEAEAQHLYQSILPDMVKIALCLPNICTQPIPLLKQKMNHSITMSQEQIASLLANAFFCTFPRRNAKMKSEYSSYPDINFNRLFEGRSSRKPEKLKTLFCYFRRVTEKKPTGLVTFTRQSLEDFPEWERCEKPLTRLHVTYEGTIEENGQGMLQVDFANRFVGGGVTSAGLVQEEIRFLINPELIISRLFTEVLDHNECLIITGTEQYSEYTGYAETYRWSRSHEDGSERDDWQRRCTEIVAIDALHFRRYLDQFVPEKMRRELNKAYCGFLRPGVSSENLSAVATGNWGCGAFGGDARLKALIQILAAAAAERDVVYFTFGDSELMRDIYSMHIFLTERKLTVGDVYKLLLRYYNEECRNCSTPGPDIKLYPFIYHAVESCAETADHSGQRTGT [PARG]”: the “solubility in G1/S (log2)” value in the series on HeLa Kyoto [1] was -0.159. The figures for the melting temperature in the series with HeLa Kyoto [2] (cell cycle stage: G1/S) and with HeLa Kyoto [2] (cell cycle stage: mitosis) were 50.8 °C and 50 °C, respectively. In addition, in the series with HeLa Kyoto [3], the “solubility change mitosis (log2)” value was -0.0937. Further, the thermal stability score was -0.493 with HeLa Kyoto [4] (setting [5]) and -0.304 in the series with HeLa Kyoto [4] (cell cycle stage: mitosis).

These data come from the supplement of paper PMC5998384.
